Data from PMC8704557 (International Journal of Molecular Sciences, 2021).

Columns and labels:
[1] = target: T1, Dye-LDH complex (recombinant dye-linked L-lactate dehydrogenase, STK16540 (α) / STK16550 (β), α3β3) (Sulfurisphaera tokodaii, UniProt Q970D7); experiment: flavin extracted from purified enzyme, identified by HPLC; assay type: binding; conditions: prosthetic group co-purified with the complex
T1 construct: gene ST1655; gene cluster stk_16540-16570 expressed in Sulfolobus acidocaldarius SK1; N-terminal His-tag on STK16540 kept; purified α3β3 heterohexamer, about 253 kDa (subunits 30 and 40 kDa by SDS-PAGE; STK16550 43 kDa); stk_16560 and stk_16570 products not in the purified complex; with Dye-linked L-lactate dehydrogenase, alpha subunit (hypothetical protein with Fe-S cluster motif)
T1 sequence (Q970D7 1-383): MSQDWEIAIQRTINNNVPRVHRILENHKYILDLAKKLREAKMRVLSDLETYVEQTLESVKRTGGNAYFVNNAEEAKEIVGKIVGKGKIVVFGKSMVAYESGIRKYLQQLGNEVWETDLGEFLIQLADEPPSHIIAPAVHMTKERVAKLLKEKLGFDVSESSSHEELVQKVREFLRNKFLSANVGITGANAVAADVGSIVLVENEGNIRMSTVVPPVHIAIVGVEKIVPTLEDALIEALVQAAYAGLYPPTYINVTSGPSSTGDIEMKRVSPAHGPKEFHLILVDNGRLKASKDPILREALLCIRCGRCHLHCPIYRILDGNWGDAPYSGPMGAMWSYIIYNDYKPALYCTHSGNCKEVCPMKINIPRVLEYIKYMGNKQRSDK
T1 sequence (Q970D8 1-287 partner): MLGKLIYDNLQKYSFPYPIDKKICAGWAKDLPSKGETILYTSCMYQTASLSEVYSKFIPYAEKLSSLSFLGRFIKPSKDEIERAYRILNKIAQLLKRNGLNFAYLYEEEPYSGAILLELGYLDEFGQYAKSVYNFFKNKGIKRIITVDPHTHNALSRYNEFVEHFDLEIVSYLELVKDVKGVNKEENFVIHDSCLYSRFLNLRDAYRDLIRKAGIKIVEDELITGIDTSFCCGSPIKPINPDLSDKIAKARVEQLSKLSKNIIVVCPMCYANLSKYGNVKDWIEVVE

[2] = target: STK16540 protein (product of stk_16540), alpha subunit of the Dye-LDH complex (Sulfurisphaera tokodaii); experiment: native gel or EMSA; native gradient PAGE (Novex NativePAGE Bis-Tris gel system) of the purified enzyme; single protein of approximately 253 kDa; subunit masses from SDS-PAGE
purified protein [3] = substrate: C[C@H](O)C(=O)O; experiment: purified protein; conditions: electron donor, standard assay 0.2 mM DCIP, 200 mM PIPES-NaOH pH 6.5, 60 °C, free enzyme
purified protein [4] = substrate: O=C1C(Cl)=CC(=Nc2ccc(O)cc2)C=C1Cl; experiment: purified protein; assay type: biochemical, Sulfurisphaera tokodaii; conditions: electron acceptor, standard assay 40 mM L-lactate, 200 mM PIPES-NaOH pH 6.5, 60 °C, free enzyme

Molecule: Cc1cc2nc3c(=O)[nH]c(=O)nc-3n(C[C@H](O)[C@H](O)[C@H](O)COP(=O)(O)O)c2cc1C [FMN]
- flavin extracted from purified enzyme, identified by HPLC [1]: the flavin compound in the enzyme extract was identified as FMN

Molecule: Dye-LDH homolog (product of stk_16550), beta subunit of the Dye-LDH complex (enzyme)
- stoichiometry N (β per α (3:3)) [2]: 1

B1: Dye-LDH complex (recombinant dye-linked L-lactate dehydrogenase, STK16540 (α) / STK16550 (β), α3β3) (Sulfurisphaera tokodaii str. 7) (protein)
chain: MSQDWEIAIQRTINNNVPRVHRILENHKYILDLAKKLREAKMRVLSDLETYVEQTLESVKRTGGNAYFVNNAEEAKEIVGKIVGKGKIVVFGKSMVAYESGIRKYLQQLGNEVWETDLGEFLIQLADEPPSHIIAPAVHMTKERVAKLLKEKLGFDVSESSSHEELVQKVREFLRNKFLSANVGITGANAVAADVGSIVLVENEGNIRMSTVVPPVHIAIVGVEKIVPTLEDALIEALVQAAYAGLYPPTYINVTSGPSSTGDIEMKRVSPAHGPKEFHLILVDNGRLKASKDPILREALLCIRCGRCHLHCPIYRILDGNWGDAPYSGPMGAMWSYIIYNDYKPALYCTHSGNCKEVCPMKINIPRVLEYIKYMGNKQRSDK
notes: gene cluster stk_16540-16570 expressed in Sulfolobus acidocaldarius SK1; N-terminal His-tag on STK16540 kept; purified α3β3 heterohexamer, about 253 kDa (subunits 30 and 40 kDa by SDS-PAGE; STK16550 43 kDa); stk_16560 and stk_16570 products not in the purified complex; with Dye-linked L-lactate dehydrogenase, alpha subunit (hypothetical protein with Fe-S cluster motif)
- Km (purified protein [3]): 199 µM
- Km (purified protein [4]): 200 µM
